The term Kd denotes a measure of binding affinity in units of concentration.

The source of these data is paper PMC8512704, “A Uniform Benchmark for Testing SsrA-Derived Degrons in the Escherichia coli ClpXP Degradation Pathway” (Molecules, 2021).

No end group written: not given here.

B6: SspB (natural protein, Escherichia coli, UniProt P0AFZ3 1-165, looked up)
chain: MDLSQLTPRRPYLLRAFYEWLLDNQLTPHLVVDVTLPGVQVPMEYARDGQIVLNIAPRAVGNLELANDEVRFNARFGGIPRQVSVPLAAVLAIYARENGAGTMFEPEAAYDEDTSIMNDEEASADNETVMSVIDGDKPDHDDDTHPDDEPPQPPRGGRPALRVVK

In test [1] the target is T1, SspB (Escherichia coli, UniProt P0AFZ3 1-165).
T1 chain: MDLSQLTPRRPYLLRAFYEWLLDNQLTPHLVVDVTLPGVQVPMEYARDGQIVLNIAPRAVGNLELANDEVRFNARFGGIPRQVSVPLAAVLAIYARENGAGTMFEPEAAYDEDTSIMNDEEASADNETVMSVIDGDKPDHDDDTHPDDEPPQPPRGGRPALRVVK
The test can be described thus: MST.

For test [2], the target named is B6. Nature of the test: MST; 50 nM eGFP-degron (eGFP fluorescence), SspB titrated 3.72 nM to 122 μM; 25 mM Hepes pH 7.6, 200 mM KCl, 5 mM MgCl2, 10% glycerol, 0.05% Tween 20; 15 min at RT; measured at 20 °C, Monolith NT.115. The conditions noted are these: both partners purified.
Test [3] deals with T1, SspB. The test can be described thus: MST.
Test [4] has as its target ClpX (Escherichia coli, UniProt P0A6H1 1-424). The test can be described thus: cell-based or functional assay.

ClpX, sequence (P0A6H1 whole entry): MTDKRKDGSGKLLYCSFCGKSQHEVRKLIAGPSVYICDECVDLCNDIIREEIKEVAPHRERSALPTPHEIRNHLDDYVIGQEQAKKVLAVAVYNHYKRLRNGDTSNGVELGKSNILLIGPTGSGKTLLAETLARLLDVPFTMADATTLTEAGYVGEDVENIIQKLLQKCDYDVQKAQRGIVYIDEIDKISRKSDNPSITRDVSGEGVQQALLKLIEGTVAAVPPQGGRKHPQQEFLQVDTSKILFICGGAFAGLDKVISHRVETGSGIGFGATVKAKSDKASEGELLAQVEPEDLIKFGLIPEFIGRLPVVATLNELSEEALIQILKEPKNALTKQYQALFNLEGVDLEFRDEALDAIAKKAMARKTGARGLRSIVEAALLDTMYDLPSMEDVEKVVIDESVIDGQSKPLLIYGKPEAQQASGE

B1: eGFP-AANDENYAANDENY (peptide)
chain: eGFP-AANDENYAANDENY
notes: two repeats of the AANDENY motif of the ssrA tag, appended to the C-terminus of eGFP; Degron fused to the C-terminus of His-TEV-eGFP; source: E. coli ΔclpP Keio strain (JW0427) (earlier Top10), pBAD, purified (HisTrap and Superdex200 in tandem); not shown: His-TEV, N-terminal, kept; eGFP, N-terminal, kept
Take B1: the Ka in test [1] worked out at 9.56e+06 M⁻¹. Besides, the binding result in test [2] is reported as “binds”. This molecule had a Kd in test [3] of 120 nM.

B2: eGFP-AANDENYSENY (peptide)
chain: eGFP-AANDENYSENY
notes: AANDENY motif of the ssrA tag followed by the SENY linker, appended to the C-terminus of eGFP; Degron fused to the C-terminus of His-TEV-eGFP; source: E. coli ΔclpP Keio strain (JW0427) (earlier Top10), pBAD, purified (HisTrap and Superdex200 in tandem); not shown: His-TEV, N-terminal, kept; eGFP, N-terminal, kept
In test [1], B2 came in with a Ka of 9.78e+06 M⁻¹. The molecule further returned a Kd in test [2] of 100 nM.

B3: eGFP-AANDENYSENYALAA (peptide)
chain: eGFP-AANDENYSENYALAA
notes: ssrA tag variant with the SENY linker between AANDENY and ALAA, appended to the C-terminus of eGFP; Degron fused to the C-terminus of His-TEV-eGFP; source: E. coli ΔclpP Keio strain (JW0427) (earlier Top10), pBAD, purified (HisTrap and Superdex200 in tandem); not shown: His-TEV, N-terminal, kept; eGFP, N-terminal, kept
B3 registered a Ka in test [1] of 7.8e+06 M⁻¹. Further, the binding result in test [2] is recorded as “binds”. Also, the affinity in test [3], expressed as Kd, was 140 nM.

B4: eGFP-AANDENYALAA (peptide)
chain: eGFP-AANDENYALAA
notes: ssrA tag of Escherichia coli, the 11 amino acids added by trans-translation (tmRNA), appended to the C-terminus of eGFP; Degron fused to the C-terminus of His-TEV-eGFP; also called eGFP-ssrA; eGFP-SsrA; source: E. coli ΔclpP Keio strain (JW0427) (earlier Top10), pBAD, purified (HisTrap and Superdex200 in tandem); not shown: His-TEV, N-terminal, kept; eGFP, N-terminal, kept
Take B4: the Ka in test [1] is 1.32e+07 M⁻¹. Besides, the Kd in test [2] is 80 nM.

B5: eGFP-AANDENYSENYADAS (peptide)
chain: eGFP-AANDENYSENYADAS
notes: ssrA tag variant with the SENY linker and the C-terminal ALAA replaced by ADAS, appended to the C-terminus of eGFP; Degron fused to the C-terminus of His-TEV-eGFP; source: E. coli ΔclpP Keio strain (JW0427) (earlier Top10), pBAD, purified (HisTrap and Superdex200 in tandem); not shown: His-TEV, N-terminal, kept; eGFP, N-terminal, kept
With B5, the Ka in test [1] is 3.37e+06 M⁻¹. For the same molecule, the Kd in test [2] was 300 nM.

B6: the “ClpX ATPase activity (NADH-coupled assay, 0.08 µM ClpX6, 30 °C) with increasing SspB2 (0-27.4 μM): increase of reaction velocity” value in test [4] was about 2 fold.

B7: eGFP-AANDENYADAS (peptide)
chain: eGFP-AANDENYADAS
notes: ssrA tag variant with the C-terminal ALAA replaced by ADAS, appended to the C-terminus of eGFP; Degron fused to the C-terminus of His-TEV-eGFP; source: E. coli ΔclpP Keio strain (JW0427) (earlier Top10), pBAD, purified (HisTrap and Superdex200 in tandem); not shown: His-TEV, N-terminal, kept; eGFP, N-terminal, kept
Regarding B7, the Ka in test [1] was determined as 3.02e+06 M⁻¹. For the same molecule, binding in test [2] was characterised by a dissociation constant (Kd) of 330 nM.

B8: eGFP-AANDENY (peptide)
chain: eGFP-AANDENY
notes: AANDENY motif of the E. coli ssrA tag, appended to the C-terminus of eGFP; Degron fused to the C-terminus of His-TEV-eGFP; source: E. coli ΔclpP Keio strain (JW0427) (earlier Top10), pBAD, purified (HisTrap and Superdex200 in tandem); not shown: His-TEV, N-terminal, kept; eGFP, N-terminal, kept
B8 gave a Ka in test [1] of 1.08e+07 M⁻¹. For the same molecule, in test [2], the binding result is given as “binds”. This molecule had a dissociation constant (Kd) in test [3] of 110 nM.
